T1: human FcRH5 expressed on stably transfected cells (BJAB.huFcRH5, OPM2.huFcRH5) (human, UniProt Q96RD9 16-977)
T1 construct: also called OPM2-FcRH5; BJAB-FcRH5
T1 chain: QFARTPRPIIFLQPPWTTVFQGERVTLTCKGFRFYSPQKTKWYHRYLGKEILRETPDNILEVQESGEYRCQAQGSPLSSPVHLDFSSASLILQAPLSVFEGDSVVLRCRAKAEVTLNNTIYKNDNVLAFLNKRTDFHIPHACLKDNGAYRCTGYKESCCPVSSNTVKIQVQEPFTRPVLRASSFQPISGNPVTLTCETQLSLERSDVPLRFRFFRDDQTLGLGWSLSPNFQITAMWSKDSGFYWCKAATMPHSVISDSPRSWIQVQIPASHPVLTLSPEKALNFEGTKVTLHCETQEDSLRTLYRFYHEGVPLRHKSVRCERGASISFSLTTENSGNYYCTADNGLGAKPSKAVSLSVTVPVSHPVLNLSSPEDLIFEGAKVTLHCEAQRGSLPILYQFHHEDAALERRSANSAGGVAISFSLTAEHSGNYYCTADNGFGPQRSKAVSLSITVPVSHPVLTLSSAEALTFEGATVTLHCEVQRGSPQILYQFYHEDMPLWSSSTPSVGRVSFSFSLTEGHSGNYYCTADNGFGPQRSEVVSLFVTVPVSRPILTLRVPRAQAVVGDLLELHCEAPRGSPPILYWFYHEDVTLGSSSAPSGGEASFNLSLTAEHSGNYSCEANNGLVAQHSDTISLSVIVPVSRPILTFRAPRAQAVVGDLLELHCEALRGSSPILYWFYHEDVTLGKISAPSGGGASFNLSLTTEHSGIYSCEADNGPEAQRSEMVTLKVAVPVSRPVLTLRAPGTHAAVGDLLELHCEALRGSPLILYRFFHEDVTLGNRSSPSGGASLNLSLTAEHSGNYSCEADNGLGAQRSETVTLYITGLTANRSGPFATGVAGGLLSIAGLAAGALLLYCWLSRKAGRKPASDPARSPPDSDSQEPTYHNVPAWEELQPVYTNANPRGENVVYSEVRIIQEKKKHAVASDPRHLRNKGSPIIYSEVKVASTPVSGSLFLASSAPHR

T2: cynomolgus FcRH5 expressed on stably transfected SVT2 cells (cynomolgus monkey)
T2 construct: also called cyno FcRH5; cynoFcRH5
T2 chain: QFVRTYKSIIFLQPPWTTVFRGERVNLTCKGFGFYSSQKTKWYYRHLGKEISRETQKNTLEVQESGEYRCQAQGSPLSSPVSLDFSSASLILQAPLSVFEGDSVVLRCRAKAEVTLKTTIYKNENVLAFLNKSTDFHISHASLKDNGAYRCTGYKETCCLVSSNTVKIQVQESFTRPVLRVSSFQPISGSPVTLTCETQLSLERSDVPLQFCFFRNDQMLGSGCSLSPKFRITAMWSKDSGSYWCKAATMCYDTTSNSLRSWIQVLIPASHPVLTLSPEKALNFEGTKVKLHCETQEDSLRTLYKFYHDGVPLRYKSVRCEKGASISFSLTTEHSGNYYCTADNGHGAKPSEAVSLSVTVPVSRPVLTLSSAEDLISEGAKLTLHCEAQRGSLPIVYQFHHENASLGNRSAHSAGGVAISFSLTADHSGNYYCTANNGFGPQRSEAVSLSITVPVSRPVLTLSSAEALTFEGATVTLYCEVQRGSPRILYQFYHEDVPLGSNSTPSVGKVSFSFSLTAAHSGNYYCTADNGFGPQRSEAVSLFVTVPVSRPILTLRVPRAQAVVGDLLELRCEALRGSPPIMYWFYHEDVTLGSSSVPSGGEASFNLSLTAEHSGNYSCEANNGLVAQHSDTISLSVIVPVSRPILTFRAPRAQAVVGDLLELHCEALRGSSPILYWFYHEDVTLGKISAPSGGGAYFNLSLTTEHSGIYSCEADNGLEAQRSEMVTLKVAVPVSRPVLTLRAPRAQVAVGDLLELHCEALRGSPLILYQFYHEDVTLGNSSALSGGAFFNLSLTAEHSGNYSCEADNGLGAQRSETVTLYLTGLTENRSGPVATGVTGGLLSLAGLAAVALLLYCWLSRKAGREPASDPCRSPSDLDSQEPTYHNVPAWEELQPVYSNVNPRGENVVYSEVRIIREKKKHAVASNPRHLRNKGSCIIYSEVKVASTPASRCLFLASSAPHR

B1: cysteine engineered chimeric anti-FcRH5 10A8, heavy chain A118C (thio-ch10A8.HC) (antibody, human IgG1, kappa, name in EU numbering)
light: DIVMTQSHKFMSTSVRDRVSITCKASQDVSTAVAWYQQKPGQSPKLLIYSASYRYTGVPDRFTGSGSGTDFTFTISSVQAEDLAVYYCQQHFSSPRTFGGGTKVEIKRTVAAPSVFIFPPSDEQLKSGTASVVCLLNNFYPREAKVQWKVDNALQSGNSQESVTEQDSKDSTYSLSSTLTLSKADYEKHKVYACEVTHQGLSSPVTKSFNRGEC
heavy: not shown
notes: also called Thio-ch10A8-HC(A118C)
B2: humanized anti-FcRH5 antibody 10A8 version 1 (hu10A8 v1) (antibody, human IgG1, V domains shown)
VL: DIQMTQSPSSLSASVGDRVTITCKASQDVSTAVAWYQQKPGKAPKLLIYSASYRYTGVPSRFSGSGSGTDFTLTISSLQPEDFATYYCQQHFSSPRTFGQGTKVEIKR
VH: EVQLVESGGGLVQPGGSLRLSCAASGFTFSSYAVSWVRQAPGKGLEWVATISSGGSLTFYLDSVRGRFTISRDNSKNTLYLQMNSLRAEDTAVYYCARPIPDYYALDYWGQGTLVTVSS
notes: Full-length human IgG1 with human kappa constant domain; also called 10A8-graft; hu10A8 graft
B3: murine anti-FcRH5 (10A8) monoclonal antibody (antibody, V domains shown)
VL: DIVMTQSHKFMSTSVRDRVSITCKASQDVSTAVAWYQQKPGQSPKLLIYSASYRYTGVPDRFTGSGSGTDFTFTISSVQAEDLAVYYCQQHFSSPRTFGGGTKVEIKR
VH: EVQLVESGGGLVKPGGSLKISCAASGFTFSSYAVSWVRQTPEKRLEWVATISSGGSLTFYLDSVRGRFTISRDNAKNTLYLQMSSLRSEDTAMYYCARPIPDYYALDYWGQGTSVTVSS
notes: Murine hybridoma IgG; also called 10A8.1.1; mu10A8
B4: chimeric anti-human FcRH5 antibody 10A8 (ch10A8) (antibody, human IgG1, kappa)
light: B1 light
heavy: not shown
notes: Murine 10A8 variable domains with human kappa and human IgG1 constant domains; also called chMAFcRH5 (10A8); chFcRH5 (10A8)
B5: thio-hu10A8 v1-HC(A118C) (antibody, human IgG1, kappa)
heavy: not shown
light: DIQMTQSPSSLSASVGDRVTITCKASQDVSTAVAWYQQKPGKAPKLLIYSASYRYTGVPSRFSGSGSGTDFTLTISSLQPEDFATYYCQQHFSSPRTFGQGTKVEIKRTVAAPSVFIFPPSDEQLKSGTASVVCLLNNFYPREAKVQWKVDNALQSGNSQESVTEQDSKDSTYSLSSTLTLSKADYEKHKVYACEVTHQGLSSPVTKSFNRGEC
notes: Cysteine engineered humanized IgG1 (thioMab), unconjugated; also called thio.hu10A8.HC; Thio-hu10A8-HC(A118C)
B6: thio-hu10A8 v1-LC(V205C) (antibody, human IgG1, kappa)
heavy: not shown
light: B5 light with V205C
notes: Cysteine engineered humanized IgG1 (thioMab), unconjugated; also called thio.hu10A8.LC; thio-hu10A8-LC(V205C)
B7: Thio-ch10A8-HC(A118C)-MC-vc-PAB-MMAE (antibody, human IgG1, kappa, name in EU numbering)
light: B1 light
heavy: not shown
modifications: MC-vc-PAB-MMAE on the engineered Cys 118 (EU numbering)
notes: Antibody-drug conjugate of thio-ch10A8.HC
B8: ch10A8-SPDB-DM4 (antibody, human IgG1, kappa)
light: B1 light
heavy: not shown
modifications: DM4 linked through the e-amino group of lysine using the SPDB linker (sites not given)
B9: thio-hu10A8-HC(A118C)-MC-vc-PAB-MMAE (antibody, human IgG1, kappa)
heavy: not shown
light: B5 light
modifications: MC-vc-PAB-MMAE on the engineered Cys 118 (EU numbering)
notes: Antibody-drug conjugate (thioMab drug conjugate); also called thio-HC(A118C)-hu-anti-FcRH5 (10A8)-MC-vc-PAB-MMAE; Thio-HC(A118C)-hu-anti-FcRH5 (10A8)-vc-E
B10: thio-hu10A8-LC(V205C)-MC-vc-PAB-MMAE (antibody, human IgG1, kappa)
heavy: not shown
light: B5 light with V205C
modifications: MC-vc-PAB-MMAE on the engineered Cys 205 (Kabat numbering)
notes: Antibody-drug conjugate (thioMab drug conjugate); also called Thio-LC(L205C)-hu-anti-FcRH5 (10A8)-vc-E

The values below come from patent US20100260748A1 (published 2010).

Usually Kd stands for the free concentration of one partner at which half of the binding sites on the other are occupied at equilibrium, for simple one-to-one binding. Higher therefore signals a looser complex.

Changes are numbered by the printed parent chain. Names and notes keep the numbering of the source.

In the first experiment the target is T1, human FcRH5 expressed on stably …. Kind of experiment: Scatchard analysis, 0.5 nM 125I-labelled antibody competed with the same unlabelled antibody (50 to 0.02 nM), OPM2.huFcRH5 cells, 4 h at 4 C. As to the method: (§1) To further determine binding of the FcRH5 murine antibodies and IgG clones, binding of iodinated IgG variants to OPM2 cells expressing human FcRH5 and SVT2 cells expressing cynomologous FcRH5, Scatchard analysis was performed.
(§2) For Scatchard analysis, 0.5 nM I¹²⁵ labeled murine or IgG clone anti-FcRH5 was competed against unlabeled murine or IgG clone anti-FcRH5, respectively, ranging from 50 to 0.02 nM (12 step 1:2 serial dilution) in the presence of a transfected OPM2 line stably expressing human-FcRH5 and a transfected SVT2 line stably expressing cynomologous-FcRH5. After a four hour incubation at 4° C., cells were washed and cell pellet counts were read by a gamma counter (1470 WIZARD Automatic Gamma Counter; Perkin Elmer, Walthem, Mass.). All points were done in triplicate and counted for 10 minutes. The average CPM was used for Kd calculation using the New Ligand (Genentech, South San Francisco, Calif.) program.
Turning to B1, the Kd stood at 0.85 nM.
On the same count and under the same terms, as for B2, the figure is 1.44 nM.

A further experiment concerns the target T2, cynomolgus FcRH5 expressed on stably …. In words: Scatchard analysis, 0.5 nM 125I-labelled antibody competed with the same unlabelled antibody (50 to 0.02 nM), SVT2.cyFcRH5 cells, 4 h at 4 C. The protocol: as §1, §2
B3: binding was put at a Kd of 2.74 nM.
The molecule B4 returned a Kd of 0.98 nM.
As to B1, the dissociation constant (Kd) amounted to 1.57 nM. Against the preceding molecule, the Kd is about 1.6-fold higher.
For B2, the equilibrium dissociation constant (Kd) came to 3.04 nM.
Still for that read-out and setting: the same measure for B5: 3.12 nM; for B6: 2.63 nM.

Another experiment deals with T1, human FcRH5 expressed on stably …. Kind of experiment: Scatchard analysis, 0.5 nM 125I-labelled antibody competed with the same unlabelled antibody (50 to 0.02 nM), BJAB.huFcRH5 cells, 4 h at 4 C.
Regarding B3, binding was characterised by a dissociation constant (Kd) of 0.44 nM.

The target is the same in a further experiment. Kind of experiment: FACS (0.1, 1.0, 10 ug/mL ADC) on OPM2 cells stably expressing human FcRH5. As to the method: For FACS analysis of FcRH5 antibody drug conjugates (see Example 2), FcRH5 ADCs were added in increasing concentrations (0.1, 1.0, and 10 μg/mL) to 10⁶ OPM2 cells transfected with and stably expressing human FcRH5 or SVT2 cells transfected with and stably expressing cynomolgus FcRH5 in a 100 μL reaction volume. Samples were then incubated 1 hr at […] in FACS buffer (PBS, 0.5% BSA, 0.1% sodium azide) to inhibit interalization. After washing, cells were resuspended in FACS buffer and incubated 30 min at room temperature with 20 μL mouse anti-human IgG conjugated to phycoerythrin (Ms anti-Human-PE) secondary antibody in a 100 μL reaction volume. After washing, cells were fixed in 200 μL 2% paraformaldehyde/PBS and flow cytometery performed. The same procedure was used for HuIgG, however, at only the highest concentration (10 μg/mL). The HuIgG was used as an isotype control to set baseline PMT per cell line. Flow cytomery was performed on a BD FACSCalibur® and geometric mean fluorescence intensity was recorded for each sample. Recorded data was analyzed using FlowJo v8.4.5 software (see FIGS. 20-25).
Turning to B7, the binding result was “binds”.
In the case of B8, the binding result is recorded as “binds”.
Same read-out and setting: as for B9, the entry is “binds”; as for B10, “binds”.
